Results: publication PMC9616769
Ends that are not written are not given here. * marks the point of attachment. pNA = O=[N+]([O-])c1ccc(N*)cc1

Biological target: NT-mini (catalytically competent fragment of human neurotrypsin, Gly497-Leu875) (human)

| Binder | Km of cleavage of the pNa peptide by NT-mini (Michaelis-Menten; 1 µM enzyme, 37 °C, 5 mM CaCl2, GF buffer pH 8) [mM] |
| --- | --- |
| KGLVEK-pNA (also: termed β-peptide, meaning not given here) [β-peptide (6-mer, KGLVEK) with a C-terminal p-nitroaniline] | 6.16 |
| GLVEK-pNA (also: termed β-peptide, meaning not given here) [β-(5 mer) peptide with a C-terminal p-nitroaniline] | 17.2 |
